The supplement of paper PMC10567573

B1: TCEB3B (parent)
chain: STTALGDKQRKANESKGTRESWDS

Variants of: B1
Experiment: protein stability index of a GFP-peptide fusion (GPS, HEK-293T) (PSI 1-6); higher = more stable
Conditions: c terminus: a fixed tail appended
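Further: lentivirally expressed fusions sorted by FACS into six bins by GFP to DsRed ratio, PSI derived from sequencing read proportions per bin multiplied by bin number.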

Protein stability index: each site, then its substitutions
R19: V 5.14, G 4.68, A 4.95, I 4.58, C 4.67, E 5.27, P 4.84, H 4.4, F 3.86, N 4.58, T 4.89, W 4.17, Q 4.49
K11: Y 4, W 3.99, C 4.53, F 3.79, P 4.23, T 4.22, N 4.39, V 4.07, M 3.86, R 3.57, G 3.88, Q 3.79, S 4.03
G6: E 4.31, Q 3.83, I 3.59, S 3.85, T 3.81, A 3.65, Y 3.68, R 4.07, L 4.08, V 2.98, D 4.12, H 3.78, M 3.93, K 3.3, C 3.74
G17: Q 3.88, E 4.78, D 4.55, V 3.55, Y 3.93, W 3.51, A 3.78, M 3.43, L 3.21, P 4.42, R 3.97, K 3.65, H 3.93, I 2.92, C 3.8, F 3.97
D23: N 4.15, R 2.13, V 2.56, W 3.59, T 1.05, S 1.78, K 2.47, I 2.69, A 4.65, P 4.76, Q 3.51, H 3.81, M 2.32
T2: E 4.05, C 3.8, I 3.29, D 4.01, K 4.11, G 3.49, F 3.75, H 3.77, L 3.67, M 3.94, R 5.3, W 3.16, S 4.09
A12: H 3.88, M 3.83, I 3.63, S 4.3, F 3.76, D 4.36, T 3.59, N 4.2, K 3.13, Y 3.4, W 3.34, L 4.03, P 4.17, G 4.21, C 3.99
S1: C 3.47, P 3.77, H 3.64, L 3.67, Y 3.6, T 3.61, E 3.85, Q 3.67, F 2.81, N 4.3, G 3.9, A 3.94, K 3.12, V 4.06, R 3.88, D 4.16
S15: K 4, A 4.69, F 3.94, Q 4.03, I 3.71, D 4.93, W 3.72, M 3.98, T 3.38, C 3.58, L 3.52, E 4.97, N 4.24, V 3.38
R10: N 4.14, D 4.76, C 3.53, H 4.24, L 4.28, V 3.54, S 4.26, G 4.55, Q 4.56, K 4.25, M 4.03, Y 4.26, T 4.33
S24: I 4.26, K 4.17, C 4.07, G 4.89, H 3.97, P 4.99, M 4.34, R 3.94, T 4.58, Q 3.84, N 4.57, E 3.93, Y 4.46, F 4.38, D 4.54
E14: V 3.34, L 3.9, M 3.65, H 3.88, C 2.77, I 3.81, P 3.19, G 3.85, S 3.82, A 3.15, Q 3.54, F 3
L5: T 4.63, R 4.03, A 4.37, C 3.44, Y 3.37, Q 4.57, D 4.22, V 4.08, F 3.29, M 3.88, K 4.37, G 4.11
T18: Q 4.03, L 3.14, P 3.22, M 3.51, A 4.15, I 3.31, D 4.05, C 4.19, Y 3.8, F 3.46, K 3.61, H 3.79, S 4
D7: S 3.43, C 3.57, I 3.23, V 3.6, M 3.2, K 4.05, Q 3.15, T 3.52, N 3.43, H 3.58, A 3.49, F 3.24, Y 3
T3: Y 3.77, G 4.22, I 3.72, V 4.36, R 3.89, W 3.57, L 3.83, A 3.89, H 4.21, K 3.56, E 4.33, Q 4.35, D 3.98, M 4.1
S21: W 4.34, P 5.24, D 5.1, R 4.82, Q 5.22, G 5.25, H 5.02, A 5.05, T 3.57, N 5.19, F 4.18, M 5.23, I 4.93, E 4.99, Y 5.09, C 4.57
Q9: V 3.85, W 2.45, Y 3.64, E 3.71, S 3.71, I 3.72, A 3.38, G 3.62, N 3.47, T 4.14, D 3.92, P 3.53, L 3.67, M 4.08
K8: I 3.98, N 4.15, W 4.51, A 3.83, T 3.46, F 3.88, M 4.12, E 4.1, Q 4.16, V 4.17, P 3.96, G 4.29, L 4.8, H 3.86, C 4.12
K16: E 5, L 4.3, W 3.13, T 4.24, D 4.96, N 3.97, G 4.52, P 4.29, A 4.45, Q 4.24, V 4.53, M 3.44, F 3.8, C 2.97, S 4.42, H 4.14
A4: G 3.75, H 3.82, L 3.49, F 3.56, Y 3.36, P 3.88, I 3.65, M 3.54, E 4.14, S 3.81, K 3.78, N 4.18
E20: C 3.66, G 5, P 4.89, R 4.2, S 4.88, T 4.86, A 4.82, W 4.5, Y 4.92, K 5.19, Q 4.38, N 4.68, D 4.76, V 4.32, M 4.54
W22: P 5.54, L 5.25, E 5.67, F 5.38, I 5.53, C 5.1, D 5.42, M 5.53, V 5.12, S 4.29, G 5.53, T 5.24, A 5.29, H 5.45, Q 5.47
N13: S 4.14, C 3.83, F 3.67, W 3.09, D 4.64, L 3.67, I 3.59, R 3.12, Q 4.1, E 4.87, T 3.78
